B1: C6-9L1 (scFv)
scFv: QVQLLQSGAELKKPGESLKISCKGSGYSFTSYWIAWVRQMPGKGLEYMGLIYPGDSDTKYSPSFQGQVTISVDKSVSTAYLQWSSLKPSDSAVYFCARHDVGYCSSSNCAKWPEYFQHWGQGTLVTVSSGGGGSGGGGSGGGGSQSVLTQPPSVSGAPGQWVTISCSGSSSNIGNNYVSWYQQLPGTAPKLLIYDNNKRPSGVPDRFSGSQSGTSASLAISGLRSEDEADYYCASWDYTLSGWVFGGGTKLTVLG
notes: C6L1 with the VL CDR3 of C6ML3-9
B2: C6-12L1 (scFv)
scFv: QVQLLQSGAELKKPGESLKISCKGSGYSFTSYWIAWVRQMPGKGLEYMGLIYPGDSDTKYSPSFQGQVTISVDKSVSTAYLQWSSLKPSDSAVYFCARHDVGYCSSSNCAKWPEYFQHWGQGTLVTVSSGGGGSGGGGSGGGGSQSVLTQPPSVSGAPGQWVTISCSGSSSNIGNNYVSWYQQLPGTAPKLLIYDNNKRPSGVPDRFSGSQSGTSASLAISGLRSEDEADYYCAAWDYSRSGWVFGGGTKLTVLG
notes: C6L1 with the VL CDR3 of C6ML3-12
B3: C6-B1D1 (scFv)
scFv: QVQLLQSGAELKKPGESLKISCKGSGYSFTSYWIAWVRQMPGKGLEYMGLIYPGDSDTKYSPSFQGQVTISVDKSVSTAYLQWSSLKPSDSAVYFCARHDVGYCTDRTCAKWPEWLHVWGQGTLVTVSSGGGGSGGGGSGGGGSQSVLTQPPSVSAAPGQKVTISCSGSSSNIGNNYVSWYQQLPGTAPKLLIYGHTNRPAGVPDRFSGSKSGTSASLAISGFRSEDEADYYCASWDYTLSGWVFGGGTKLTVLG
notes: Combined B and D library mutations on C6ML3-9
B4: C6-B1D2 (scFv)
scFv: QVQLLQSGAELKKPGESLKISCKGSGYSFTSYWIAWVRQMPGKGLEYMGLIYPGDSDTKYSPSFQGQVTISVDKSVSTAYLQWSSLKPSDSAVYFCARHDVGYCTDRTCAKWPEWLGVWGQGTLVTVSSGGGGSGGGGSGGGGSQSVLTQPPSVSAAPGQKVTISCSGSSSNIGNNYVSWYQQLPGTAPKLLIYGHTNRPAGVPDRFSGSKSGTSASLAISGFRSEDEADYYCASWDYTLSGWVFGGGTKLTVLG
notes: Combined B1 and D2 mutations on C6ML3-9
B5: C6-B1D3 (scFv)
scFv: QVQLLQSGAELKKPGESLKISCKGSGYSFTSYWIAWVRQMPGKGLEYMGLIYPGDSDTKYSPSFQGQVTISVDKSVSTAYLQWSSLKPSDSAVYFCARHDVGYCTDRTCAKWPEWLDNWGQGTLVTVSSGGGGSGGGGSGGGGSQSVLTQPPSVSAAPGQKVTISCSGSSSNIGNNYVSWYQQLPGTAPKLLIYGHTNRPAGVPDRFSGSKSGTSASLAISGFRSEDEADYYCASWDYTLSGWVFGGGTKLTVLG
notes: Combined B1 and D3 mutations on C6ML3-9
B6: C6-B1D5 (scFv)
scFv: QVQLLQSGAELKKPGESLKISCKGSGYSFTSYWIAWVRQMPGKGLEYMGLIYPGDSDTKYSPSFQGQVTISVDKSVSTAYLQWSSLKPSDSAVYFCARHDVGYCTDRTCAKWPEWMQMWGQGTLVTVSSGGGGSGGGGSGGGGSQSVLTQPPSVSAAPGQKVTISCSGSSSNIGNNYVSWYQQLPGTAPKLLIYGHTNRPAGVPDRFSGSKSGTSASLAISGFRSEDEADYYCASWDYTLSGWVFGGGTKLTVLG
notes: Combined B1 and D5 mutations on C6ML3-9
B7: C6-B1D6 (scFv)
scFv: QVQLLQSGAELKKPGESLKISCKGSGYSFTSYWIAWVRQMPGKGLEYMGLIYPGDSDTKYSPSFQGQVTISVDKSVSTAYLQWSSLKPSDSAVYFCARHDVGYCTDRTCAKWPEWMYPWGQGTLVTVSSGGGGSGGGGSGGGGSQSVLTQPPSVSAAPGQKVTISCSGSSSNIGNNYVSWYQQLPGTAPKLLIYGHTNRPAGVPDRFSGSKSGTSASLAISGFRSEDEADYYCASWDYTLSGWVFGGGTKLTVLG
notes: Combined B1 and D6 mutations on C6ML3-9
B8: C6-B47D1 (scFv)
scFv: QVQLLQSGAELKKPGESLKISCKGSGYSFTSYWIAWVRQMPGKGLEYMGLIYPGDSDTKYSPSFQGQVTISVDKSVSTAYLQWSSLKPSDSAVYFCARHDVGYCTDRSCAKWPEWLHVWGQGTLVTVSSGGGGSGGGGSGGGGSQSVLTQPPSVSAAPGQKVTISCSGSSSNIGNNYVSWYQQLPGTAPKLLIYGHTNRPAGVPDRFSGSKSGTSASLAISGFRSEDEADYYCASWDYTLSGWVFGGGTKLTVLG
notes: Combined B47 and D1 mutations on C6ML3-9
B9: C6-B47D2 (scFv)
scFv: QVQLLQSGAELKKPGESLKISCKGSGYSFTSYWIAWVRQMPGKGLEYMGLIYPGDSDTKYSPSFQGQVTISVDKSVSTAYLQWSSLKPSDSAVYFCARHDVGYCTDRSCAKWPEWLGVWGQGTLVTVSSGGGGSGGGGSGGGGSQSVLTQPPSVSAAPGQKVTISCSGSSSNIGNNYVSWYQQLPGTAPKLLIYGHTNRPAGVPDRFSGSKSGTSASLAISGFRSEDEADYYCASWDYTLSGWVFGGGTKLTVLG
notes: Combined B47 and D2 mutations on C6ML3-9
B10: C6-B47D3 (scFv)
scFv: QVQLLQSGAELKKPGESLKISCKGSGYSFTSYWIAWVRQMPGKGLEYMGLIYPGDSDTKYSPSFQGQVTISVDKSVSTAYLQWSSLKPSDSAVYFCARHDVGYCTDRSCAKWPEWLDNWGQGTLVTVSSGGGGSGGGGSGGGGSQSVLTQPPSVSAAPGQKVTISCSGSSSNIGNNYVSWYQQLPGTAPKLLIYGHTNRPAGVPDRFSGSKSGTSASLAISGFRSEDEADYYCASWDYTLSGWVFGGGTKLTVLG
notes: Combined B47 and D3 mutations on C6ML3-9
B11: C6-B47D5 (scFv)
scFv: QVQLLQSGAELKKPGESLKISCKGSGYSFTSYWIAWVRQMPGKGLEYMGLIYPGDSDTKYSPSFQGQVTISVDKSVSTAYLQWSSLKPSDSAVYFCARHDVGYCTDRSCAKWPEWMQMWGQGTLVTVSSGGGGSGGGGSGGGGSQSVLTQPPSVSAAPGQKVTISCSGSSSNIGNNYVSWYQQLPGTAPKLLIYGHTNRPAGVPDRFSGSKSGTSASLAISGFRSEDEADYYCASWDYTLSGWVFGGGTKLTVLG
notes: Combined B47 and D5 mutations on C6ML3-9
B12: C6-B47D6 (scFv)
scFv: QVQLLQSGAELKKPGESLKISCKGSGYSFTSYWIAWVRQMPGKGLEYMGLIYPGDSDTKYSPSFQGQVTISVDKSVSTAYLQWSSLKPSDSAVYFCARHDVGYCTDRSCAKWPEWMYPWGQGTLVTVSSGGGGSGGGGSGGGGSQSVLTQPPSVSAAPGQKVTISCSGSSSNIGNNYVSWYQQLPGTAPKLLIYGHTNRPAGVPDRFSGSKSGTSASLAISGFRSEDEADYYCASWDYTLSGWVFGGGTKLTVLG
notes: Combined B47 and D6 mutations on C6ML3-9

What follows are binders tested against T1, c-erbB-2 ECD with a Ser-Gly-His6 C-terminal fusion (UniProt P04626 23-652) (assay: SPR BIAcore).
T1 construct: extracellular domain; Expressed from CHO cells, IMAC purified; coupled to a CM5 chip, coated on plates, or biotinylated with NHS-LC-biotin; also called c-erbB-2 extracellular domain; biotinylated c-erbB-2 ECD
Experimental: All assays were performed in triplicate. Briefly, […] of radioiodinated sFv was added to 5×10^6 SK-OV cells in the presence of increasing concentrations of unlabeled sFv from the same preparation. After a 30 minute incubation at 20° C., the samples were washed with PBS at 4° C. and centrifuged at 500 g. The amount of labeled sFv bound to the cells was determined by counting the pellets in a gamma counter and the K_a, and K_d were calculated using the EBDA program (V 2.0, G. A. McPherson, 1983). The K_d of all the other isolated sFv were determined using surface plasmon resonance in a BIAcore (Pharmacia). In a BIAcore flow cell, approximately 1400 resonance units (RU) of c-erbB-2 ECD (25 μg/ml in 10 mM sodium acetate, pH 4.5) was coupled to a CM5 sensor chip (Johnsson et al. (1991), supra). Association and dissociation-rates were measured under continuous flow of […] using a concentration range from 50 to 800 nM. Rate constant $kon$ was determined from a plot of (1(dR/dt))/t vs concentration (Karlsson et al. (1991), supra). Rate constant $Hoff$ was determined from the dissociation part of the sensorgram at the highest concentration of sFv analyzed.
Mutants obtained by combining mutations of C6MH3-B1 or C6MH3-B47 with mutations from D library clones (D1, D2, D3, D5, D6). Rate constants $kon$ and $koff$ were measured by SPR in a BIAcore, and the K_d calculated.
B1 was tested, and the Kd was 330 pM, the “Kd (C6.5)/Kd (mut)” value was 49 and the “Kd (parent)/Kd (mut)” value was 3. For the same binder, the koff was 0.0003 s⁻¹ and the kon was 920000 M⁻¹ s⁻¹. In the case of B2, the Kd is reported as 190 pM, the “Kd (C6.5)/Kd (mut)” value is reported as 84 and the “Kd (parent)/Kd (mut)” value is reported as 8.4. The koff was 0.00013 s⁻¹ and the kon was 670000 M⁻¹ s⁻¹. In the case of B3, the Kd is reported as 32 pM, the “Kd (C6.5)/Kd (mut)” value is reported as 500 and the “Kd (parent)/Kd (mut)” value is reported as 3.8. The koff was 1.5e-05 s⁻¹ and the kon was 470000 M⁻¹ s⁻¹. B4 was tested, and the Kd was 15 pM, the “Kd (C6.5)/Kd (mut)” value was 1070 and the “Kd (parent)/Kd (mut)” value was 8. The koff was 1e-05 s⁻¹ and the kon was 690000 M⁻¹ s⁻¹. B5 was tested, and the Kd was 13 pM, the “Kd (C6.5)/Kd (mut)” value was 1230 and the “Kd (parent)/Kd (mut)” value was 9.2. The koff was 8e-06 s⁻¹ and the kon was 640000 M⁻¹ s⁻¹. B6 was tested, and the Kd was 35 pM, the “Kd (C6.5)/Kd (mut)” value was 457 and the “Kd (parent)/Kd (mut)” value was 3.4. It also gave a koff of 1.8e-05 s⁻¹ and a kon of 510000 M⁻¹ s⁻¹. B7 was tested, and the Kd was 32 pM, the “Kd (C6.5)/Kd (mut)” value was 500 and the “Kd (parent)/Kd (mut)” value was 3.8. The koff was 1.3e-05 s⁻¹ and the kon was 410000 M⁻¹ s⁻¹. In the case of B8, the Kd is reported as 68 pM, the “Kd (C6.5)/Kd (mut)” value is reported as 235 and the “Kd (parent)/Kd (mut)” value is reported as 1.6. It also gave a koff of 4.8e-05 s⁻¹ and a kon of 710000 M⁻¹ s⁻¹. For B9, the Kd was 44 pM, the “Kd (C6.5)/Kd (mut)” value was 364 and the “Kd (parent)/Kd (mut)” value was 2.5. For the same binder, the koff was 4.3e-05 s⁻¹ and the kon was 980000 M⁻¹ s⁻¹. With B10 the Kd was 48 pM, the “Kd (C6.5)/Kd (mut)” value was 333 and the “Kd (parent)/Kd (mut)” value was 2.3. For the same binder, the koff was 3.2e-05 s⁻¹ and the kon was 660000 M⁻¹ s⁻¹. With B11 the Kd was 63 pM, the “Kd (C6.5)/Kd (mut)” value was 254 and the “Kd (parent)/Kd (mut)” value was 1.7. It also gave a koff of 3.9e-05 s⁻¹ and a kon of 620000 M⁻¹ s⁻¹. For B12, the Kd was 51 pM, the “Kd (C6.5)/Kd (mut)” value was 314 and the “Kd (parent)/Kd (mut)” value was 2.2. The koff was 3e-05 s⁻¹ and the kon was 590000 M⁻¹ s⁻¹.
